The values that follow come from publication doi:10.1101/2025.04.23.650334.

For the series, the target named is T1, GdFen1 (Giardia duodenalis, UniProt A8B672 1-361).
T1 sequence: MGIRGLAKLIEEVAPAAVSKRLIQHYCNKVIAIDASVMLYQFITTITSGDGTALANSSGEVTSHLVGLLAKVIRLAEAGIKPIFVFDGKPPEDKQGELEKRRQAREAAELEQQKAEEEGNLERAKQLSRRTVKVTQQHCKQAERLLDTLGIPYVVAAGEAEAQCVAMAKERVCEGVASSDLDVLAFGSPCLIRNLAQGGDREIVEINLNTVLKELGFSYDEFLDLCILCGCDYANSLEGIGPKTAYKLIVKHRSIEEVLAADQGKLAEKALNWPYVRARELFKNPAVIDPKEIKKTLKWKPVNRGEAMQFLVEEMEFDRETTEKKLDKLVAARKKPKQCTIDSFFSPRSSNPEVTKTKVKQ
Nature of the series: EMSA. For orientation: In EMSA bound probe runs differently from free probe, usually more slowly.

B1: Flap probe (structured_DNA)
DNA 1: CGCGGATCCCACTACGCCGATTTTTTTTTTTTTTTTTTTTACGTATGCCACGAATTCGCG
DNA 2: CGCGAATTCGTGGCATACGTAAAAAAAAAAAAAAAAAAAAGAGATGCGAGTCTAGACCGG
DNA 3: CCGGTCTAGACTCGCATCTC
With B1, the binding result is on record as “binds”.

B2: Bubble probe (structured_DNA)
DNA 1: CGCGGATCCCACTACGCCGATTTTTTTTTTTTTTTTTTTTACGTATGCCACGAATTCGCG
DNA 2: CGCGAATTCGTGGCATACGTTTTTTTTTTTTTTTTTTTTTTCGGCGTAGTGGGATCCGCG
Take B2: the binding result is recorded as “binds”.
